Read-outs that look alike come from different tables or passages of the source.
How the values were obtained:
ZBP1 KH3-KH4 (ZBP1KH34) [1] = target: T1, ZBP1 KH3-KH4 (ZBP1KH34) (Gallus gallus, UniProt O42254 404-561); test: EMSA
ZBP1 KH3-KH4 (ZBP1KH34) [2] = target: T1, ZBP1 KH3-KH4 (ZBP1KH34); test: EMSA; remark: listed apart in the source

T1 sequence (O42254 404-561): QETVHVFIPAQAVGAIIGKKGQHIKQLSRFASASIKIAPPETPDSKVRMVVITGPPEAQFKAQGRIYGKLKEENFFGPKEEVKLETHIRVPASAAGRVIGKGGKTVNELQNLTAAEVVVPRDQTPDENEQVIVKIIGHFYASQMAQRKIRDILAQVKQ

B1: A oligonucleotide: chicken beta-actin zipcode unmodified (ssRNA)
RNA: ACCGGACUGUUACCAACACCCACACCCC
ZBP1 KH3-KH4 (ZBP1KH34) [1]
  binding result: binds

B2: B oligonucleotide: zipcode m6A site 1202 (GGm6ACU) (ssRNA)
RNA: ACCGGACUGUUACCAACACCCACACCCC
modifications: m6A at position 6
ZBP1 KH3-KH4 (ZBP1KH34) [2]
  binding result: binds

From paper PMC10187669
